assay: soluble on expression in E. coli; label from the status in PepcDB or PDB records

| Sequence | soluble on expression in E. coli |
| --- | --- |
| MIGYQIYVRSFRDGNLDGVGDFRGLKNAVSYLKELGIDFVWLMPVFSSISFHGYDVVDFYSFKAEYGSEREFKEMIEAFHDSGIKVVLDLPIHHTGFLHTWFQKALKGDPHYRDYYVWANKETDLDERREWDGEKIWHPLEDGRFYRGLFGPFSPDLNYDNPQVFDEMKRLVLHLLDMGVDGFRFDAAKHMRDTIEQNVRFWKYFLSDLKGIFLAEIWAEARMVDEHGRIFGYMLNFDTSHCIKEAVWKENTRVLIESIERAVIAKDYLPVNFTSNHDMSRLASFEGGFSKEKIKLSISILFTLPGVPLVFYGDELGMKGVYQKPNTEVVLDPFPWNESMCVEGQTFWKWPAYNGPFSGISVEYQKRDPDSILSHTLGWTRFRKENQWIDRAKLEFLCKEDKFLVYRLYDDQHSLKVFHNLSGEEVVFEGVKMKPYKTEVV | soluble |
| MIIERLVGNLRDLNPLDFSVDHVDLEWFETRKKIARFKTRQGKDIAIRLKDAPKLGLSQGDILFKEEKEIIAVNILDSEVIHIQAKSVAEVAKICYEIGNRHAALYYGESQFEFKTPFEKPTLALLEKLGVQNRVLSSKLDSKERLTVSMPHSEPNFKVSLASDFKVVVK | not soluble |
| MIIKKIIDLTMPITAQTPVYPGDPKPKIEPAATFAQDGYHVSRLVLGSHSGTHVDAPFHFCEHGWRLDDVPLTYFLGRGVVIDATGKAEGEAVTMADAAPYIPKLSPGTIVLFHTGWSQYAGTKRYFRHPYVAPDVIEAMLERGVRTFLIDALNIDPPDGSLFHAHELILGANGVIGENFVNFERIDFDDPYIIALPLSLPGCERFARSGGGGAVGVTKKGDTAPHML | not soluble |
| MIINKVKSLIKHGFNLAIDISADILLIFTETGRTYEYYKDQEAIYKRARKNRSLKDFKSLKVVVTTPNEETFLKLKNESKIIPLLMTYRNDDRSSMIKQAVTNLFANNIVKKGDIVVSILGIPKVTGGTDTISIFEVNEYPQILKYYDYISSIEKTKGKVINEVLNLCMELAVEGREGTPVGSIFVIGDSDRVLKMSSQLILNPFEGHESFIFDKQVKGTVKELSTIDGAFVIGEKGEVLCAGRYISCSGGNIELPLGLGARHHAAATISKYTGAIAITVSESGGVIRIFKNGEILSEIKPKKLSNTSEYSY | not soluble |
| MIISDKFSLEAMCATTITDVKAGDEIILYGQKLTDENSCVTIKTDRVDIISSGNFIKYPNSTDIYDFDNKIDEWSFIIVEGVVNGNTIELNDKSTF | not soluble |
| MIKASLVFFAFLALASGRRHHYDYYDCEPERGPRGREGREGPRGAQGAPGPNGTGFFWPGTCEQSDCPDGWISVNRKINNDVEKKWCINMFWNQATNDLYKTSEKVCNSYGGVMTGFKDKGEFISVFALLKNRFPNIKPVSQVMIGARRLETCASISNFGNCTITKGTKWTDLVMSIDSFFNELQQSARFSPLKKCIVANPTNLKLYVANCNVLESDYPQDLFMCGRFAPCKK | not soluble |
| MIKDLVRPELQKLVPYVSHQVPYRIKLDANESPFELPESIRKKLADYFLKGPGLNIYPDNESVELRKTIAKYWNVDADEVIVGTGSNQLIQLIITVFVGKGEKVLYPWPTFSMYKINTLIAGGEPVAFPLDKEKDFVLDTDKFIEAVKTENAKVVFLCNPNNPTGGLVPLEHIEKIVKECKSSIIVVDEAYAEFCPQSVIPLVKKYENLVVLRTFSKAYLLAGARCGYSISGIEIANEINKVRPTYNVSSLTQLIAKMVFEEQEEMQKMIRYLIEQRGELEKSLKKIKDVCIYPSHANYILVKVPEAEMISKELQKRGILIRSFPNDPVLYDCIRITVGTKEQNDIFLEEFSDIINNF | not soluble |
| MIKEQVKSLWKLCFDDSEAFIELYFRLRYNNEVNLAIQSGEEVIAALQMLPYPMTFCNKIVPTSYISGACTHPDYRAKGVMRELLSQSFARMLRNGVLFSTLIPAEPWLFGYYAKTGYTPAFRISHKVFSLSELTIGPEPDTMIEETTEYQEDYYQYLTGKLSERACCLQHTPTDFKVVLADLALTQNTVLIARKDNRVTGIAVVYKHDDSSYINELFADNEAVRAQLLYRAGLRNGTERIILQLPPVESLPSVPLGMARIIDARAVLQLYAAGCPEVEMNIELTDEQLSVNNGYYYLCKGKCMTSEVRLPGVHTRMTIAELSEKILGEMQPYMSLMMN | not soluble |
| MIKFSIRGENIEVTEAIRDYVESKLTKIEKYFAKDQEIDARVNLKVYRERSSKVEVTIPLDSVTLRAEDVSQDMYGSIDLVVDKIERQIRKNKTKIAKKHREKVPTGQVFTTEFEAEEVDEIPEVQVVRTKNVTLKPMDVEEARLQMELLGHDFFIYTDSEDGATNILYRREDGNLGLIEAKLEHHHHHH | soluble |
| MIKILAACGAGVNSSHQIKSALEEELSNRGYDVHCDAVMVKDVNEDLMKGYDIFTPIAATDLGFEPGIPVIEAGPILFRIPAMSVPVFDNIRLPAKQNMV | not soluble |
| MIKPLTSSQEEVLKALNDDKYQIVGVFGPTGTGKTLLTLSYGIDVIKQGKFKKFIIVKPIVDIVTKKEITATELPNYHEVILSYIKDVLGPEYSATVDELYKSGRIEILDSRLLRGRTFDDSIIFIDEVQELQPESIIELIIRIGRNSKLVVAGDPVFQSLQMKTFKDPSELVREVLLNEEDAKVIDLGVKDIIRAGAKRGLRLLIEYRLRSRILSEEENKVLNVTKAHAPDADIITVVDLSEEKKKLGLDNLTTVPDSIIVVKEGNIGRLVGKGGERINSTEKEIGKKLRALELSLDFKEYIRAVHPLPWVVKHIEDADFKGNELVVQIKKETGAFMGQKGSYVRFVDEAIRKLLGVGIRVIAKENENS | soluble |
| MILKASKEALKEAVEILKKGGIIVAPTDTLYGILADATNEEAVKRLYKIRRPSGKPFLVLLPDESWLEKLCLDVKEEHKKLLKVEGLTLVFRKTCDKLDYVSKGTLAVRLPQKGFIRDLLSELKKPVVAPSVNPEGKKPAESVEEAYNYFGNKVDLYIDAGVIKGEPSTILDLTEGVKILREGKVKKEEIEKILNRKL | soluble |
| MILLQLNHISKSFDGEDIFTDVDFEVKTGERIGIVGRNGAGKSTLMKIIAGVENYDSGNVSKIKNLKLGYLTQQMTLNSNATVFEEMSKPFEHIKRMESLIKEETDWLSKHANDYDSDTYKTHMSRYESLSNQFEQLEGYQYESKIKTVLYGLNFSEEDFNKPINDFSGGQKTRLSLAQMLLNEPDLLLLDEPTNHLDLETTKWLEDYLRYFKGAIVIISHDRYFLDKIVTQIYDVALGDVKRYVGNYEEFIQQRDLYYQKRMQEYESQQAEIKRLETFVEKNITRASTSGMAKSRRKILEKMERIDKPMLDAKSANIQFGFDRNTGNDVMHVKNLEIGYQTAITKPMSIEVSKGDHIAIIGPNGIGKSTLIKTIANQQKALNGDITFGANLQIGYYDQKQAEFKSSKTILDYVWDQYPLMNEKDIRAVLGRFLFVQDDVKKIINDLSGGEKARLLLALLMLQRDNVLILDEPTNHLDIDSKEMLEQALQHFEGTILFVSHDRYFINQLANKVFDLTIDGGKMYLGDYQYYIEKVEEAEALKAHQEEQSVNVQAHKKSMEQSSYHNQKEQRREQRKLERQISECENEIETLETTILQIDEQLTQPEVYNNPQKANELAIQKQDSEQKLEHAMSKWEELQQKL | not soluble |
| MILTITYTQPPATDLGYLLHKNPSRPQTFELNHGKAHIFYPEATSERCTVALLLDIDPIDLARGKKGSSGEGGLFDYVNDRPYVSSSFMSVAISRVFGTAMSGKCKEKPELAAIKLPLKAKIMMLPCKGGEEIIYRLFEPLGYKVDVEGYMLDEKFPEWGKSRYYTVSLEGEVRVRDLLNHIYVLIPVLDSEKHYWVGEDEIDKLFQHGEGWLVDHPEKELITGRYLIRKKRLVNQALKRLLEASDVVDDENEDDEPLKNEETEKKLNLNQQRLGTVVAVLKSVNAKKVIDLGCGEGNLLSLLLKDKSFEQITGVDVSYSVLERAKDRLKIDRLPEMQRKRISLFQSSLVYRDKRFSGYDAATVIEVIEHLDENRLQAFEKVLFEFTRPQTVIVSTPNKEYNFHYQNLFEGNLRHRDHRFEWTRKEFETWAVKVAEKYGYSVRFLQIGEIDDEFGSPTQMGVFTL | not soluble |
| MINARGETMARFTVVIPYYQKQHGVLGRALASVFAQTYQDFDLVIVDDESPYPIDQELAEISQEQKDRIVVIKQANAGPGGARNTGLDHVPDGTDYVAFLDSDDMWTPDHLRNAAFALNTYGGECYWASMQASDEFYYHFAISELEKNEGAARLSEKPLVIELPDLASVMLRNWSFLHLSCMVIGRPLFEKIRFDPALRLAAEDVLFFCDSILASKRTLLCDDAGAMRGMGVNIFHSIDNTSPEFLRQQFNTWVALDTLEGRFSRRPADVASIASYKNTARKQALWSQAGNLKRRRAPQFGLLFKWAMRDPALLRAAFELGAGKIVRSRLEHHHHHH | not soluble |
| MINIAVDNSIKITIETTVNAPIDMVWEAWTEPEHIKSWNHASDDWHTTEAKNDLRVGGRFVSKMEAKDGSFGFDFGGTYNKVRLYEFISYIMDDDRSVEITFKPEKDKTYIVESFEAEKSNPIDLQQKGWQAILDNFKKYVEENKLRGREKLEHHHHHH | soluble |
| MINITSMRDSFGDWAEKFLKSKEADGVSVSQLNSYKNYCRNHLSPLYMKSLSEILPADIQSIINETKLAKNTLKAIRNTASQIFRLAIENRAIDFNPADYVRIPKIAPEFHRDALEHHHHHH | soluble |
| MINLTSIASSLARVALSDSTKPTIDRALNVVSHIAGKVALQVNSSLLEQKGRLNERQQKGLAVILDALRGKEPVTNVETHEGGGRFNLARAAFDVASVVWERDKSMHNVMSFLGVSDSQGKMLFSLGKKLADAMAKPEPGYGKHNSEANYAFFSSNLKLNKLMSDIADQLINEIRQSNTDRVRRPTPGPSWRPESAQQQARPQTPPRTRPQANSTPPPPKAKPNAGAKRPSTQRPHNTPAADASSKVGDSGPAKPPVKPLYEHLGLSDMTADLSAVKTAYKKAALKNHPDKNAGNVAEATERFKVISNAFKILSDPELRKKYDNGLINEKGDEVQV | not soluble |
| MINRKIGFIGAGKMGSALMQGIIKAGIVQPENIGASDVYEPFLKELQTKLGIRVSTDNTVIVRESDILILAVKPQTLGSVLENLKNEITSEKLVISIAAGVPLSTYEGALLEGTRVVRVMPNIAATVSEAASGISPGKNATPEDMKDALTIFSAVGTAVQVPESLMDAVTGLSGSGPAFIFPVIEAMADGAVLEGMDRKSALTLAAQTVLGAAKMALETGMHPGELKDMVTSPAGTTIQGVHALEEAGIRAAFMNAVIRASERSRELGKKAAALEHHHHHH | soluble |
| MINSSMQFDRILASQPGISLIAEKRITRSASYFPDHFPKRPVLPMTVLLECKLNLAKEFIARAKYDRAYRISELRKIKMNEFVHPGDVVVCQVKVKQQMDDELILSYRCEVDGKRVCVVDIVLIPKGKLEHHHHHH | not soluble |
| MIPDDEFIKNPSVPGPTAMEVRCLIMCLAEPGKNDVAVDVGCGTGGVTLELAGRVRRVYAIDRNPEAISTTEMNLQRHGLGDNVTLMEGDAPEALCKIPDIDIAVVGGSGGELQEILRIIKDKLKPGGRIIVTAILLETKFEAMECLRDLGFDVNITELNIARGRALDRGTMMVSRNPVALIYTGVSHENKD | soluble |
| MIPIERHQKILALVAERGVVSIAELTERLGVSHMTIRRDVQKLEEQGAVLSVSGGVRSTQRLAIEPSHQDKTMMFSRQKQAIGTSAALHIPRNSCIYLDAGTTTLALARQLEDRDDLLVVTNDFVIANFLIESSQCRMIHSGGTLCRKNRSCIGEAAAHSLRNLSIDIAFISASCWGLRGISTPDEDKVPVKRAISEASSKRVLLADASKYGKVATYLALPLTAFDVVITDNSLSSTVYEELAEKALELIIASPPR | not soluble |
| MIPNFRGFNKKTKKMYSIDGFKSSERKIYRCSLADDEFRSGRLETFHFVEDNLVEKCNRPPERFYRQKQVRKSDRRLMARQ | not soluble |

From the DeepSol protein solubility set
